To fix the notation:
B1: A-kinase anchor protein 1, mitochondrial (Homo sapiens), Q92667 (parent)
chain: MAIQFRSLFPLALPGMLALLGWWWFFSRKKGHVSSHDEQQVEAGAVQLRADPAIKEPLPVEDVCPKVVSTPPSVTEPPEKELSTVSKLPAEPPALLQTHPPCRRSESSGILPNTTDMRLRPGTRRDDSTKLELALTGGEAKSIPLECPLSSPKGVLFSSKSAEVCKQDSPFSRVPRKVQPGYPVVPAEKRSSGERARETGGAEGTGDAVLGEKVLEEALLSREHVLELENSKGPSLASLEGEEDKGKSSSSQVVGPVQEEEYVAEKLPSRFIESAHTELAKDDAAPAPPVADAKAQDRGVEGELGNEESLDRNEEGLDRNEEGLDRNEESLDRNEEGLDRNEEIKRAAFQIISQVISEATEQVLATTVGKVAGRVCQASQLQGQKEESCVPVHQKTVLGPDTAEPATAEAAVAPPDAGLPLPGLPAEGSPPPKTYVSCLKSLLSSPTKDSKPNISAHHISLASCLALTTPSEELPDRAGILVEDATCVTCMSDSSQSVPLVASPGHCSDSFSTSGLEDSCTETSSSPRDKAITPPLPESTVPFSNGVLKGELSDLGAEDGWTMDAEADHSGGSDRNSMDSVDSCCSLKKTESFQNAQAGSNPKKVDLIIWEIEVPKHLVGRLIGKQGRYVSFLKQTSGAKIYISTLPYTQSVQICHIEGSQHHVDKALNLIGKKFKELNLTNIYAPPLPSLALPSLPMTSWLMLPDGITVEVIVVNQVNAGHLFVQQHTHPTFHALRSLDQQMYLCYSQPGIPTLPTPVEITVICAAPGADGAWWRAQVVASYEETNEVEIRYVDYGGYKRVKVDVLRQIRSDFVTLPFQGAEVLLDSVMPLSDDDQFSPEADAAMSEMTGNTALLAQVTSYSPTGLPLIQLWSVVGDEVVLINRSLVERGLAQWVDSYYTSL
B2: Cysteinyl leukotriene receptor 2 (Homo sapiens), Q9NS75 (parent)
chain: MERKFMSLQPSISVSEMEPNGTFSNNNSRNCTIENFKREFFPIVYLIIFFWGVLGNGLSIYVFLQPYKKSTSVNVFMLNLAISDLLFISTLPFRADYYLRGSNWIFGDLACRIMSYSLYVNMYSSIYFLTVLSVVRFLAMVHPFRLLHVTSIRSAWILCGIIWILIMASSIMLLDSGSEQNGSVTSCLELNLYKIAKLQTMNYIALVVGCLLPFFTLSICYLLIIRVLLKVEVPESGLRVSHRKALTTIIITLIIFFLCFLPYHTLRTVHLTTWKVGLCKDRLHKALVITLALAAANACFNPLLYYFAGENFKDRLKSALRKGHPQKAKTKCVFPVSVWLRKETRV
B3: 5-hydroxytryptamine receptor 2C (Homo sapiens), P28335 (parent)
chain: MVNLRNAVHSFLVHLIGLLVWQSDISVSPVAAIVTDIFNTSDGGRFKFPDGVQNWPALSIVIIIIMTIGGNILVIMAVSMEKKLHNATNYFLMSLAIADMLVGLLVMPLSLLAILYDYVWPLPRYLCPVWISLDVLFSTASIMHLCAISLDRYVAIRNPIEHSRFNSRTKAIMKIAIVWAISIGVSVPIPVIGLRDEEKVFVNNTTCVLNDPNFVLIGSFVAFFIPLTIMVITYCLTIYVLRRQALMLLHGHTEEPPGLSLDFLKCCKRNTAEEENSANPNQDQNARRRKKKERRPRGTMQAINNERKASKVLGIVFFVFLIMWCPFFITNILSVLCEKSCNQKLMEKLLNVFVWIGYVCSGINPLVYTLFNKIYRRAFSNYLRCNYKVEKKPPVRQIPRVAATALSGRELNVNIYRHTNEPVIEKASDNEPGIEMQVENLELPVNPSSVVSERISSV
B4: Monocarboxylate transporter 4 (Homo sapiens), O15427 (parent)
chain: MGGAVVDEGPTGVKAPDGGWGWAVLFGCFVITGFSYAFPKAVSVFFKELIQEFGIGYSDTAWISSILLAMLYGTGPLCSVCVNRFGCRPVMLVGGLFASLGMVAASFCRSIIQVYLTTGVITGLGLALNFQPSLIMLNRYFSKRRPMANGLAAAGSPVFLCALSPLGQLLQDRYGWRGGFLILGGLLLNCCVCAALMRPLVVTAQPGSGPPRPSRRLLDLSVFRDRGFVLYAVAASVMVLGLFVPPVFVVSYAKDLGVPDTKAAFLLTILGFIDIFARPAAGFVAGLGKVRPYSVYLFSFSMFFNGLADLAGSTAGDYGGLVVFCIFFGISYGMVGALQFEVLMAIVGTHKFSSAIGLVLLMEAVAVLVGPPSGGKLLDATHVYMYVFILAGAEVLTSSLILLLGNFFCIRKKPKEPQPEVAAAEEEKLHKPPADSGVDLREVEHFLKAEPEKNGEVVHTPETSV
B5: Inward rectifier potassium channel 4 (Homo sapiens), P48050 (parent)
chain: MHGHSRNGQAHVPRRKRRNRFVKKNGQCNVYFANLSNKSQRYMADIFTTCVDTRWRYMLMIFSAAFLVSWLFFGLLFWCIAFFHGDLEASPGVPAAGGPAAGGGGAAPVAPKPCIMHVNGFLGAFLFSVETQTTIGYGFRCVTEECPLAVIAVVVQSIVGCVIDSFMIGTIMAKMARPKKRAQTLLFSHHAVISVRDGKLCLMWRVGNLRKSHIVEAHVRAQLIKPYMTQEGEYLPLDQRDLNVGYDIGLDRIFLVSPIIIVHEIDEDSPLYGMGKEELESEDFEIVVILEGMVEATAMTTQARSSYLASEILWGHRFEPVVFEEKSHYKVDYSRFHKTYEVAGTPCCSARELQESKITVLPAPPPPPSAFCYENELALMSQEEEEMEEEAAAAAAVAAGLGLEAGSKEEAGIIRMLEFGSHLDLERMQASLPLDNISYRRESAI
B6: Plakophilin-4 (Homo sapiens), Q99569 (parent)
chain: MPAPEQASLVEEGQPQTRQEAASTGPGMEPETTATTILASVKEQELQFQRLTRELEVERQIVASQLERCRLGAESPSIASTSSTEKSFPWRSTDVPNTGVSKPRVSDAVQPNNYLIRTEPEQGTLYSPEQTSLHESEGSLGNSRSSTQMNSYSDSGYQEAGSFHNSQNVSKADNRQQHSFIGSTNNHVVRNSRAEGQTLVQPSVANRAMRRVSSVPSRAQSPSYVISTGVSPSRGSLRTSLGSGFGSPSVTDPRPLNPSAYSSTTLPAARAASPYSQRPASPTAIRRIGSVTSRQTSNPNGPTPQYQTTARVGSPLTLTDAQTRVASPSQGQVGSSSPKRSGMTAVPQHLGPSLQRTVHDMEQFGQQQYDIYERMVPPRPDSLTGLRSSYASQHSQLGQDLRSAVSPDLHITPIYEGRTYYSPVYRSPNHGTVELQGSQTALYRTGSVGIGNLQRTSSQRSTLTYQRNNYALNTTATYAEPYRPIQYRVQECNYNRLQHAVPADDGTTRSPSIDSIQKDPREFAWRDPELPEVIHMLQHQFPSVQANAAAYLQHLCFGDNKVKMEVCRLGGIKHLVDLLDHRVLEVQKNACGALRNLVFGKSTDENKIAMKNVGGIPALLRLLRKSIDAEVRELVTGVLWNLSSCDAVKMTIIRDALSTLTNTVIVPHSGWNNSSFDDDHKIKFQTSLVLRNTTGCLRNLSSAGEEARKQMRSCEGLVDSLLYVIHTCVNTSDYDSKTVENCVCTLRNLSYRLELEVPQARLLGLNELDDLLGKESPSKDSEPSCWGKKKKKKKRTPQEDQWDGVGPIPGLSKSPKGVEMLWHPSVVKPYLTLLAESSNPATLEGSAGSLQNLSAGNWKFAAYIRAAVRKEKGLPILVELLRMDNDRVVSSVATALRNMALDVRNKELIGKYAMRDLVNRLPGGNGPSVLSDETMAAICCALHEVTSKNMENAKALADSGGIEKLVNITKGRGDRSSLKVVKAAAQVLNTLWQYRDLRSIYKKDGWNQNHFITPVSTLERDRFKSHPSLSTTNQQMSPIIQSVGSTSSSPALLGIRDPRSEYDRTQPPMQYYNSQGDATHKGLYPGSSKPSPIYISSYSSPAREQNRRLQHQQLYYSQDDSNRKNFDAYRLYLQSPHSYEDPYFDDRVHFPASTDYSTQYGLKSTTNYVDFYSTKRPSYRAEQYPGSPDSWV
B7: Sodium bicarbonate cotransporter 3 (Homo sapiens), Q9Y6M7 (parent)
chain: MERFRLEKKLPGPDEEAVVDLGKTSSTVNTKFEKEELESHRAVYIGVHVPFSKESRRRHRHRGHKHHHRRRKDKESDKEDGRESPSYDTPSQRVQFILGTEDDDEEHIPHDLFTEMDELCYRDGEEYEWKETARWLKFEEDVEDGGDRWSKPYVATLSLHSLFELRSCILNGTVMLDMRASTLDEIADMVLDNMIASGQLDESIRENVREALLKRHHHQNEKRFTSRIPLVRSFADIGKKHSDPHLLERNGEGLSASRHSLRTGLSASNLSLRGESPLSLLLGHLLPSSRAGTPAGSRCTTPVPTPQNSPPSSPSISRLTSRSSQESQRQAPELLVSPASDDIPTVVIHPPEEDLEAALKGEEQKNEENVDLTPGILASPQSAPGNLDNSKSGEIKGNGSGGSRENSTVDFSKVDMNFMRKIPTGAEASNVLVGEVDFLERPIIAFVRLAPAVLLTGLTEVPVPTRFLFLLLGPAGKAPQYHEIGRSIATLMTDEIFHDVAYKAKDRNDLLSGIDEFLDQVTVLPPGEWDPSIRIEPPKSVPSQEKRKIPVFHNGSTPTLGETPKEAAHHAGPELQRTGRLFGGLILDIKRKAPFFLSDFKDALSLQCLASILFLYCACMSPVITFGGLLGEATEGRISAIESLFGASLTGIAYSLFAGQPLTILGSTGPVLVFEKILYKFCRDYQLSYLSLRTSIGLWTSFLCIVLVATDASSLVCYITRFTEEAFAALICIIFIYEALEKLFDLGETYAFNMHNNLDKLTSYSCVCTEPPNPSNETLAQWKKDNITAHNISWRNLTVSECKKLRGVFLGSACGHHGPYIPDVLFWCVILFFTTFFLSSFLKQFKTKRYFPTKVRSTISDFAVFLTIVIMVTIDYLVGVPSPKLHVPEKFEPTHPERGWIISPLGDNPWWTLLIAAIPALLCTILIFMDQQITAVIINRKEHKLKKGAGYHLDLLMVGVMLGVCSVMGLPWFVAATVLSISHVNSLKVESECSAPGEQPKFLGIREQRVTGLMIFILMGLSVFMTSVLKFIPMPVLYGVFLYMGVSSLKGIQLFDRIKLFGMPAKHQPDLIYLRYVPLWKVHIFTVIQLTCLVLLWVIKVSAAAVVFPMMVLALVFVRKLMDLCFTKRELSWLDDLMPESKKKKEDDKKKKEKEEAERMLQDDDDTVHLPFEGGSLLQIPVKALKYSPDKPVSVKISFEDEPRKKYVDAETSL

The first experiment covers variants of B1. The settings on record: with scrib_human SCRIB.
Target sequence in this assay (Q14160 whole entry): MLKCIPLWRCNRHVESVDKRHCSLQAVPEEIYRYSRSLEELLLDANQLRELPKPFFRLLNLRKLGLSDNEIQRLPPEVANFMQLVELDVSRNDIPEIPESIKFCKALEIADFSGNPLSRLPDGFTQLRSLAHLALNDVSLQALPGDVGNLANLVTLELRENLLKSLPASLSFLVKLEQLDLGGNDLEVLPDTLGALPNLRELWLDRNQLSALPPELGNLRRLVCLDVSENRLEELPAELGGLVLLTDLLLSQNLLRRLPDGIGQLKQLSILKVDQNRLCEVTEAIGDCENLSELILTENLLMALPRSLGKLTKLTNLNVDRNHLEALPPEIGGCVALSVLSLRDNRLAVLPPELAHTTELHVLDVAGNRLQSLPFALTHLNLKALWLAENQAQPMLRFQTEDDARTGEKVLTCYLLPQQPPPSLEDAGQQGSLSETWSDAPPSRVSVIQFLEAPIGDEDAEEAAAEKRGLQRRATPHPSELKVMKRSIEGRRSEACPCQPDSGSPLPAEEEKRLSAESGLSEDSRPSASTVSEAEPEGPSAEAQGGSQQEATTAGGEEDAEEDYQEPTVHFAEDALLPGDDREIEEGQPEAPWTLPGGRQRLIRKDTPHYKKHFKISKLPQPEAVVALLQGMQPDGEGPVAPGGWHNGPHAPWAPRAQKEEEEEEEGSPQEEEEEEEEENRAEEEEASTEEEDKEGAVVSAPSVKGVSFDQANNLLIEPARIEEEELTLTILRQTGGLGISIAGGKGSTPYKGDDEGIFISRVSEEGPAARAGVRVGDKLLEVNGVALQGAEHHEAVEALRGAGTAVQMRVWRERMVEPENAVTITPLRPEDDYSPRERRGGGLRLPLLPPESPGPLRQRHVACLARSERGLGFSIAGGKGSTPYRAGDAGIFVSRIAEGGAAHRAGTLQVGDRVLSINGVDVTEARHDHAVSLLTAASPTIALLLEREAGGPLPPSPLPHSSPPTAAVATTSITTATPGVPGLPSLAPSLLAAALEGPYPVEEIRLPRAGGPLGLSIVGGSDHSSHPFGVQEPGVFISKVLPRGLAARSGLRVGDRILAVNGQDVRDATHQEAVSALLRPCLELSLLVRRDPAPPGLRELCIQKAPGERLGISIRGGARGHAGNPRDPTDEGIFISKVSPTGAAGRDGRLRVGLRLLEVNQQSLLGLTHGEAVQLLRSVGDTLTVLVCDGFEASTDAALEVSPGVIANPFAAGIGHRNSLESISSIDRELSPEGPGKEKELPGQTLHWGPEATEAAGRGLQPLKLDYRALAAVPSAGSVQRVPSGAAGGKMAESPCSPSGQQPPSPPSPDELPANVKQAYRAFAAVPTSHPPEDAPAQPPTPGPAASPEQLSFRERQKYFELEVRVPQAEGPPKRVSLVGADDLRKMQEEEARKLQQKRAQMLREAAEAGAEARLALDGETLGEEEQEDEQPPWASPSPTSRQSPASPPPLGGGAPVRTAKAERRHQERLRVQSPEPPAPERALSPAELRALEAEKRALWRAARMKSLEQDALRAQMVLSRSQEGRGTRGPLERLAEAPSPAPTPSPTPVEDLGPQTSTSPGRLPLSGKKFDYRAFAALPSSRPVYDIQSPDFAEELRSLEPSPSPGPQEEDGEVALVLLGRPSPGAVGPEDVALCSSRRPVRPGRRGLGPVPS
For S902E, the “effect of a mutation on the interaction” value is given as “increasing interaction strength”.

The variants in a further experiment derive from B2. The settings on record: with scrib_human SCRIB.
Target sequence in this assay (Q14160 whole entry): as above
As to T344E, the “effect of a mutation on the interaction” value is recorded as “disrupting interaction strength”.

A further experiment covers variants of B2. Conditions: with dlg1_human DLG1, Q12959.
Target sequence in this assay (Q12959 whole entry, looked up): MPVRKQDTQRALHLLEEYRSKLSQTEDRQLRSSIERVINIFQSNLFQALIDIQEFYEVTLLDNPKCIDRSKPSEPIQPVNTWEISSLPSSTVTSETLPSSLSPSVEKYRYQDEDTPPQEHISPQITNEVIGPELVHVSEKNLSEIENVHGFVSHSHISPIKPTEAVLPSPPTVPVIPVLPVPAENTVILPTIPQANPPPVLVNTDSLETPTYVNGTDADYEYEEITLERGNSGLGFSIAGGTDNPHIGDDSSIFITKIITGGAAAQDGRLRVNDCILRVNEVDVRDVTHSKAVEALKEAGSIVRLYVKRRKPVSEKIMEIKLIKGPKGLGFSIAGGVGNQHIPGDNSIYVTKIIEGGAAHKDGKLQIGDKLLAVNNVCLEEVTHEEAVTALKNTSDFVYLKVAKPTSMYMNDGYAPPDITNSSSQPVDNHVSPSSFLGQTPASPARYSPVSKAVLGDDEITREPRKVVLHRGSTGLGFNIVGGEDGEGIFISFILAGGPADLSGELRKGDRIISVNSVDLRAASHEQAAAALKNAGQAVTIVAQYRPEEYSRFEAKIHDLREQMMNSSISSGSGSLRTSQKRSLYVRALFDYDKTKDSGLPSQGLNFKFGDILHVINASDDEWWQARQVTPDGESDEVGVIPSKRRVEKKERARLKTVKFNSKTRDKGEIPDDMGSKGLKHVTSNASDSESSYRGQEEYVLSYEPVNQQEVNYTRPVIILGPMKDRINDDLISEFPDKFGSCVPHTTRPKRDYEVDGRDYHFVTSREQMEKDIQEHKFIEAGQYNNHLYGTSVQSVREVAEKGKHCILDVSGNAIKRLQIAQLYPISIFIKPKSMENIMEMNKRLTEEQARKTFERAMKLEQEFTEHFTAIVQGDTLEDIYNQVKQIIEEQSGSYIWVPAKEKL
Regarding T344E, the “effect of a mutation on the interaction” value is “disrupting interaction strength”.

Another experiment covers variants of B3. Conditions: with dlg1_human DLG1, Q12959.
Target sequence in this assay (Q12959 whole entry, looked up): as above
For S457E, the “effect of a mutation on the interaction” value is recorded as “with no effect”.

Variants of B4 are the subject of another experiment. The settings on record: with scrib_human SCRIB.
Target sequence in this assay (Q14160 whole entry): as the sequence (Q14160 whole entry) above
Regarding S464E, the “effect of a mutation on the interaction” value was “with no effect”.

In another experiment the parent is B5. Conditions: with scrib_human SCRIB.
Target sequence in this assay (Q14160 whole entry): as above
Consider S443E, for which the “effect of a mutation on the interaction” value is recorded as “disrupting interaction strength”.

The variants in another experiment derive from B6. Conditions: with dlg1_human DLG1, Q12959.
Target sequence in this assay (Q12959 whole entry, looked up): as the sequence (Q12959 whole entry, looked up) above
For the variant S1190E, the “effect of a mutation on the interaction” value is recorded as “disrupting interaction strength”.

Another experiment covers variants of B7. Conditions: with scrib_human SCRIB.
Target sequence in this assay (Q14160 whole entry): as the sequence (Q14160 whole entry) above
Regarding S1213E, the “effect of a mutation on the interaction” value is on record as “with no effect”.

Source of the values: IntAct's records for PubMed 30126976.
